Series [1] concerns the molecule itself. Kind of series: fluorescence microscopy of purified complexes on slides.
Another series has as its target T1, GST-Cla4 (S. cerevisiae, UniProt P48562 1-842).
T1 sequence: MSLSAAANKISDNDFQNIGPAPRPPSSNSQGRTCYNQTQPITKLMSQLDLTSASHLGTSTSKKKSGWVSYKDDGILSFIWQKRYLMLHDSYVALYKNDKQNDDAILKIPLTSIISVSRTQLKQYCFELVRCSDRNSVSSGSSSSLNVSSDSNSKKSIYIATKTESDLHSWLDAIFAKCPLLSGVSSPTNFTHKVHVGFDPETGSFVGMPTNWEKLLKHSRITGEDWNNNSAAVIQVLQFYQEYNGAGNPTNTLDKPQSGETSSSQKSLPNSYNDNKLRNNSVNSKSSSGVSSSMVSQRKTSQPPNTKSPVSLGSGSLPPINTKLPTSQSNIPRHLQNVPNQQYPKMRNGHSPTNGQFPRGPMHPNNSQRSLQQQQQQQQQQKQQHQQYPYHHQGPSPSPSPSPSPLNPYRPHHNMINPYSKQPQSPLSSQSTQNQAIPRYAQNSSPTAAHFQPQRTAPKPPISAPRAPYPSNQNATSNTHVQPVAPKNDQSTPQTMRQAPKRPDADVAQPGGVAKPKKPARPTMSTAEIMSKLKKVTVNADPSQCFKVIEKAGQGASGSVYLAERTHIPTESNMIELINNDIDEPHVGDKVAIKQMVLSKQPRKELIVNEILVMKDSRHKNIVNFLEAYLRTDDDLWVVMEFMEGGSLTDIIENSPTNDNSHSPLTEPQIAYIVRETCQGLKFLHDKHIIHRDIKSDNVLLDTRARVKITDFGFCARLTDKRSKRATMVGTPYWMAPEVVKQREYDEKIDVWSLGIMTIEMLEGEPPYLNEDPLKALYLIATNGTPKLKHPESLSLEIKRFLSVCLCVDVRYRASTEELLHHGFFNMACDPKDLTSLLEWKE
The series can be described thus: pull-down.

B1: His6Cdc12–Cdc3–Cdc10–Cdc11 complex (complex)
chain 1: MSAATATAAPVPPPVGISNLPNQRYKIVNEEGGTFTVMLCGESGLGKTTFINTLFQTVLKRADGQQHRQEPIRKTVEIDITRALLEEKHFELRVNVIDTPGFGDNVNNNKAWQPLVDFIDDQHDSYMRQEQQPYRTKKFDLRVHAVLYFIRPTGHGLKPIDIETMKRLSTRANLIPVIAKADTLTAQELQQFKSRIRQVIEAQEIRIFTPPLDADSKEDAKSGSNPDSAAVEHARQLIEAMPFAIVGSEKKFDNGQGTQVVARKYPWGLVEIENDSHCDFRKLRALLLRTYLLDLISTTQEMHYETYRRLRLEGHENTGEGNEDFTLPAIAPARKLSHNPRYKEEENALKKYFTDQVKAEEQRFRQWEQNIVNERIRLNGDLEEIQGKVKKLEEQVKSLQVKKSHLK
chain 2: MSLKEEQVSIKQDPEQEERQHDQFNDVQIKQESQDHDGVDSQYTNGTQNDDSERFEAAESDVKVEPGLGMGITSSQSEKGQVLPDQPEIKFIRRQINGYVGFANLPKQWHRRSIKNGFSFNLLCVGPDGIGKTTLMKTLFNNDDIEANLVKDYEEELANDQEEEEGQGEGHENQSQEQRHKVKIKSYESVIEENGVKLNLNVIDTEGFGDFLNNDQKSWDPIIKEIDSRFDQYLDAENKINRHSINDKRIHACLYFIEPTGHYLKPLDLKFMQSVYEKCNLIPVIAKSDILTDEEILSFKKTIMNQLIQSNIELFKPPIYSNDDAENSHLSERLFSSLPYAVIGSNDIVENYSGNQVRGRSYPWGVIEVDNDNHSDFNLLKNLLIKQFMEELKERTSKILYENYRSSKLAKLGIKQDNSVFKEFDPISKQQEEKTLHEAKLAKLEIEMKTVFQQKVSEKEKKLQKSETELFARHKEMKEKLTKQLKALEDKKKQLELSINSASPNVNHSPVPTKKKGFLR
chain 3: MDPLSSVQPASYVGFDTITNQIEHRLLKKGFQFNIMVVGQSGLGKSTLINTLFASHLIDSATGDDISALPVTKTTEMKISTHTLVEDRVRLNINVIDTPGFGDFIDNSKAWEPIVKYIKEQHSQYLRKELTAQRERFITDTRVHAILYFLQPNGKELSRLDVEALKRLTEIANVIPVIGKSDTLTLDERTEFRELIQNEFEKYNFKIYPYDSEELTDEELELNRSVRSIIPFAVVGSENEIEINGETFRGRKTRWSAINVEDINQCDFVYLREFLIRTHLQDLIETTSYIHYEGFRARQLIALKENANSRSSAHMSSNAIQR
chain 4: MSGIIDASSALRKRKHLKRGITFTVMIVGQSGSGRSTFINTLCGQQVVDTSTTILLPTDTSTEIDLQLREETVELEDDEGVKIQLNIIDTPGFGDSLDNSPSFEIISDYIRHQYDEILLEESRVRRNPRFKDGRVHCCLYLINPTGHGLKEIDVEFIRQLGSLVNIIPVISKSDSLTRDELKLNKKLIMEDIDRWNLPIYNFPFDEDEISDEDYETNMYLRTLLPFAIIGSNEVYEMGGDVGTIRGRKYPWGILDVEDSSISDFVILRNALLISHLHDLKNYTHEILYERYRTEALSGESVAAESIRPNLTKLNGSSSSSTTTRRNTNPFKQSNNINNDVLNPASDMHGQSTGENNETYMTREEQIRLEEERLKAFEERVQQELLLKRQELLQREKELREIEARLEKEAKIKQEE
For B1, the binding result in series [1] was “binds”.

B2: Heterotetrameric complex containing just Cdc12(T48N), but wild-type Cdc3, Cdc10, and Cdc11 (complex)
chain 1: MSAATATAAPVPPPVGISNLPNQRYKIVNEEGGTFTVMLCGESGLGKNTFINTLFQTVLKRADGQQHRQEPIRKTVEIDITRALLEEKHFELRVNVIDTPGFGDNVNNNKAWQPLVDFIDDQHDSYMRQEQQPYRTKKFDLRVHAVLYFIRPTGHGLKPIDIETMKRLSTRANLIPVIAKADTLTAQELQQFKSRIRQVIEAQEIRIFTPPLDADSKEDAKSGSNPDSAAVEHARQLIEAMPFAIVGSEKKFDNGQGTQVVARKYPWGLVEIENDSHCDFRKLRALLLRTYLLDLISTTQEMHYETYRRLRLEGHENTGEGNEDFTLPAIAPARKLSHNPRYKEEENALKKYFTDQVKAEEQRFRQWEQNIVNERIRLNGDLEEIQGKVKKLEEQVKSLQVKKSHLK
chain 2: MSLKEEQVSIKQDPEQEERQHDQFNDVQIKQESQDHDGVDSQYTNGTQNDDSERFEAAESDVKVEPGLGMGITSSQSEKGQVLPDQPEIKFIRRQINGYVGFANLPKQWHRRSIKNGFSFNLLCVGPDGIGKTTLMKTLFNNDDIEANLVKDYEEELANDQEEEEGQGEGHENQSQEQRHKVKIKSYESVIEENGVKLNLNVIDTEGFGDFLNNDQKSWDPIIKEIDSRFDQYLDAENKINRHSINDKRIHACLYFIEPTGHYLKPLDLKFMQSVYEKCNLIPVIAKSDILTDEEILSFKKTIMNQLIQSNIELFKPPIYSNDDAENSHLSERLFSSLPYAVIGSNDIVENYSGNQVRGRSYPWGVIEVDNDNHSDFNLLKNLLIKQFMEELKERTSKILYENYRSSKLAKLGIKQDNSVFKEFDPISKQQEEKTLHEAKLAKLEIEMKTVFQQKVSEKEKKLQKSETELFARHKEMKEKLTKQLKALEDKKKQLELSINSASPNVNHSPVPTKKKGFLR
chain 3: MDPLSSVQPASYVGFDTITNQIEHRLLKKGFQFNIMVVGQSGLGKSTLINTLFASHLIDSATGDDISALPVTKTTEMKISTHTLVEDRVRLNINVIDTPGFGDFIDNSKAWEPIVKYIKEQHSQYLRKELTAQRERFITDTRVHAILYFLQPNGKELSRLDVEALKRLTEIANVIPVIGKSDTLTLDERTEFRELIQNEFEKYNFKIYPYDSEELTDEELELNRSVRSIIPFAVVGSENEIEINGETFRGRKTRWSAINVEDINQCDFVYLREFLIRTHLQDLIETTSYIHYEGFRARQLIALKENANSRSSAHMSSNAIQR
chain 4: MSGIIDASSALRKRKHLKRGITFTVMIVGQSGSGRSTFINTLCGQQVVDTSTTILLPTDTSTEIDLQLREETVELEDDEGVKIQLNIIDTPGFGDSLDNSPSFEIISDYIRHQYDEILLEESRVRRNPRFKDGRVHCCLYLINPTGHGLKEIDVEFIRQLGSLVNIIPVISKSDSLTRDELKLNKKLIMEDIDRWNLPIYNFPFDEDEISDEDYETNMYLRTLLPFAIIGSNEVYEMGGDVGTIRGRKYPWGILDVEDSSISDFVILRNALLISHLHDLKNYTHEILYERYRTEALSGESVAAESIRPNLTKLNGSSSSSTTTRRNTNPFKQSNNINNDVLNPASDMHGQSTGENNETYMTREEQIRLEEERLKAFEERVQQELLLKRQELLQREKELREIEARLEKEAKIKQEE
Turning to B2, the binding result in series [1] was “binds”.

B3: His6-Cdc3 (natural protein)
chain: MSLKEEQVSIKQDPEQEERQHDQFNDVQIKQESQDHDGVDSQYTNGTQNDDSERFEAAESDVKVEPGLGMGITSSQSEKGQVLPDQPEIKFIRRQINGYVGFANLPKQWHRRSIKNGFSFNLLCVGPDGIGKTTLMKTLFNNDDIEANLVKDYEEELANDQEEEEGQGEGHENQSQEQRHKVKIKSYESVIEENGVKLNLNVIDTEGFGDFLNNDQKSWDPIIKEIDSRFDQYLDAENKINRHSINDKRIHACLYFIEPTGHYLKPLDLKFMQSVYEKCNLIPVIAKSDILTDEEILSFKKTIMNQLIQSNIELFKPPIYSNDDAENSHLSERLFSSLPYAVIGSNDIVENYSGNQVRGRSYPWGVIEVDNDNHSDFNLLKNLLIKQFMEELKERTSKILYENYRSSKLAKLGIKQDNSVFKEFDPISKQQEEKTLHEAKLAKLEIEMKTVFQQKVSEKEKKLQKSETELFARHKEMKEKLTKQLKALEDKKKQLELSINSASPNVNHSPVPTKKKGFLR
Take B3: in the series with GST-Cla4, the binding result is “binds”.

B4: His6-Cdc10 (natural protein)
chain: MDPLSSVQPASYVGFDTITNQIEHRLLKKGFQFNIMVVGQSGLGKSTLINTLFASHLIDSATGDDISALPVTKTTEMKISTHTLVEDRVRLNINVIDTPGFGDFIDNSKAWEPIVKYIKEQHSQYLRKELTAQRERFITDTRVHAILYFLQPNGKELSRLDVEALKRLTEIANVIPVIGKSDTLTLDERTEFRELIQNEFEKYNFKIYPYDSEELTDEELELNRSVRSIIPFAVVGSENEIEINGETFRGRKTRWSAINVEDINQCDFVYLREFLIRTHLQDLIETTSYIHYEGFRARQLIALKENANSRSSAHMSSNAIQR
As to B4, in the series with GST-Cla4, the binding result is “binds”.

(Values after article PMC2172161 (The Journal of Cell Biology, 2004).)
